Data published in the Human Domainome abundance scans (Beltran et al. 2025).
± gives the uncertainty stated by the source.

B1: COUP transcription factor 1, residues 83 to 159; numbered along this chain, P10589 (parent)
chain: HIECVVCGDKSSGKHYGQFTCEGCKSFFKRSVRRNLTYTCRANRNCPIDQHHRNQCQYCRLKKCLKVGMRREAVQRG

Variants of: B1
Experiment: abundance fitness (aPCA) (normalised: wild type 0, dead -1); higher = more abundant; growth selection in yeast, the domain comes from the species named
Settings: Homo sapiens

Variant | abundance fitness
N43A | 0.152 ± 0.06
N43F | -0.22 ± 0.2
N43G | 0.051 ± 0.05
N43M | -0.222 ± 0.13
N43Q | 0.027 ± 0.1
N43K | 0.018 ± 0.081
N45R | 0.067 ± 0.05
N45Y | -0.595 ± 0.42
N45Q | 0.13 ± 0.075
N45G | -0.004 ± 0.045
L61K | -0.78 ± 0.1
L61S | -0.691 ± 0.07
L61W | -0.05 ± 0.041
L61N | -0.702 ± 0.14
L61G | -0.73 ± 0.06
G17E | -0.156 ± 0.075
G17N | -0.165 ± 0.21
G17L | -0.437 ± 0.086
C7L | -0.843 ± 0.15
C7A | -0.692 ± 0.1
C7R | -0.802 ± 0.093

Variant | abundance fitness
C7Y | -0.268 ± 0.2
C7W | -0.821 ± 0.14
P47W | -0.217 ± 0.062
P47R | -0.188 ± 0.044
P47C | -0.206 ± 0.085
P47H | -0.296 ± 0.12
P47M | -0.267 ± 0.071
Q55G | -0.017 ± 0.037
Q55R | -0.074 ± 0.039
G23A | -0.153 ± 0.14
G23R | -0.081 ± 0.079
G23L | -0.544 ± 0.36
R71Y | 0.089 ± 0.062
R71T | 0.02 ± 0.045
R71P | 0.023 ± 0.052
R71C | -0.062 ± 0.062
R71W | -0.085 ± 0.045
T20P | -0.402 ± 0.087
T20M | -0.079 ± 0.076
T20D | -1.13 ± 0.34
T20C | 0.163 ± 0.064

Variant | abundance fitness
N35M | -0.118 ± 0.12
N35P | -0.402 ± 0.2
N35H | -0.256 ± 0.26
N35K | 0.085 ± 0.097
E22H | -0.504 ± 0.17
E22I | -0.495 ± 0.21
E22W | -0.061 ± 0.071
L65F | -0.039 ± 0.078
L65G | -0.392 ± 0.039
L65T | -0.133 ± 0.052
L65H | 0.102 ± 0.07
L65R | -0.497 ± 0.044
N54V | -0.025 ± 0.044
N54M | 0.015 ± 0.061
N54W | -0.194 ± 0.053
N54F | -0.222 ± 0.1
N54G | -0.153 ± 0.039
N54H | -0.116 ± 0.11
N54K | -0.089 ± 0.082
K25H | 0.283 ± 0.1
K25R | 0.095 ± 0.04

Variant | abundance fitness
K25T | 0.011 ± 0.059
K25A | 0.09 ± 0.043
R70I | 0.046 ± 0.16
R70A | 0.023 ± 0.038
R70N | 0.071 ± 0.092
C21G | -0.744 ± 0.054
C64H | -0.577 ± 0.16
C64L | -0.513 ± 0.06
C64A | -0.203 ± 0.043
H1A | -0.078 ± 0.21
K66Q | 0.055 ± 0.052
K66S | 0.074 ± 0.036
K66H | -0.103 ± 0.068
K66I | -0.079 ± 0.061
K10L | -0.313 ± 0.056
K10Y | 0.045 ± 0.098
K10P | 0.051 ± 0.071
K10W | -0.233 ± 0.053
E3G | -0.402 ± 0.04
E3K | -0.226 ± 0.083
